In article PMC8298264, “Function of cofactor Akirin2 in the regulation of gene expression in model human neutrophil-like HL60 cells” (Bioscience Reports, 2021):

B1: sp¦P09429¦HMGB1_HUMAN (protein, UniProt P09429 1-215, looked up)
High mobility group protein B1: MGKGDPKKPRGKMSSYAFFVQTCREEHKKKHPDASVNFSEFSKKCSERWKTMSAKEKGKFEDMAKADKARYEREMKTYIPPKGETKKKFKDPNAPKRPPSAFFLFCSEYRPKIKGEHPGLSIGDVAKKLGEMWNNTAADDKQPYEKKAAKLKEKYEKDIAAYRAKGKPDAAKKGVVKAEKSKKKKEEEEDEEDEEDEEEEEDEEDEDEEEDDDDE
B2: sp¦P37837¦TALDO_HUMAN (protein, UniProt P37837 1-337, looked up)
Transaldolase: MSSSPVKRQRMESALDQLKQFTTVVADTGDFHAIDEYKPQDATTNPSLILAAAQMPAYQELVEEAIAYGRKLGGSQEDQIKNAIDKLFVLFGAEILKKIPGRVSTEVDARLSFDKDAMVARARRLIELYKEAGISKDRILIKLSSTWEGIQAGKELEEQHGIHCNMTLLFSFAQAVACAEAGVTLISPFVGRILDWHVANTDKKSYEPLEDPGVKSVTKIYNYYKKFSYKTIVMGASFRNTGEIKALAGCDFLTISPKLLGELLQDNAKLVPVLSAKAAQASDLEKIHLDEKSFRWLHNEDQMAVEKLSDGIRKFAADAVKLERMLTERMFNAENGK
B3: sp¦Q9UK45¦LSM7_HUMAN (protein, UniProt Q9UK45 2-103, looked up)
U6 snRNA-associated Sm-like …: ADKEKKKKESILDLSKYIDKTIRVKFQGGREASGILKGFDPLLNLVLDGTIEYMRDPDDQYKLTEDTRQLGLVVCRGTSVVLICPQDGMEAIPNPFIQQQDA
B4: sp¦P12236¦ADT3_HUMAN (protein, UniProt P12236 1-298, looked up)
ADP/ATP translocase 3: MTEQAISFAKDFLAGGIAAAISKTAVAPIERVKLLLQVQHASKQIAADKQYKGIVDCIVRIPKEQGVLSFWRGNLANVIRYFPTQALNFAFKDKYKQIFLGGVDKHTQFWRYFAGNLASGGAAGATSLCFVYPLDFARTRLAADVGKSGTEREFRGLGDCLVKITKSDGIRGLYQGFSVSVQGIIIYRAAYFGVYDTAKGMLPDPKNTHIVVSWMIAQTVTAVAGVVSYPFDTVRRRMMMQSGRKGADIMYTGTVDCWRKIFRDEGGKAFFKGAWSNVLRGMGGAFVLVLYDELKKVI
B5: sp¦P04083¦ANXA1_HUMAN (protein, UniProt P04083 2-346, looked up)
Annexin A1: AMVSEFLKQAWFIENEEQEYVQTVKSSKGGPGSAVSPYPTFNPSSDVAALHKAIMVKGVDEATIIDILTKRNNAQRQQIKAAYLQETGKPLDETLKKALTGHLEEVVLALLKTPAQFDADELRAAMKGLGTDEDTLIEILASRTNKEIRDINRVYREELKRDLAKDITSDTSGDFRNALLSLAKGDRSEDFGVNEDLADSDARALYEAGERRKGTDVNVFNTILTTRSYPQLRRVFQKYTKYSKHDMNKVLDLELKGDIEKCLTAIVKCATSKPAFFAEKLHQAMKGVGTRHKALIRIMVSRSEIDMNDIKAFYQKMYGISLCQAILDETKGDYEKILVALCGGN
B6: sp¦O75534¦CSDE1_HUMAN (protein, UniProt O75534 1-798, looked up)
Cold shock domain-containing …: MSFDPNLLHNNGHNGYPNGTSAALRETGVIEKLLTSYGFIQCSERQARLFFHCSQYNGNLQDLKVGDDVEFEVSSDRRTGKPIAVKLVKIKQEILPEERMNGQVVCAVPHNLESKSPAAPGQSPTGSVCYERNGEVFYLTYTPEDVEGNVQLETGDKINFVIDNNKHTGAVSARNIMLLKKKQARCQGVVCAMKEAFGFIERGDVVKEIFFHYSEFKGDLETLQPGDDVEFTIKDRNGKEVATDVRLLPQGTVIFEDISIEHFEGTVTKVIPKVPSKNQNDPLPGRIKVDFVIPKELPFGDKDTKSKVTLLEGDHVRFNISTDRRDKLERATNIEVLSNTFQFTNEAREMGVIAAMRDGFGFIKCVDRDVRMFFHFSEILDGNQLHIADEVEFTVVPDMLSAQRNHAIRIKKLPKGTVSFHSHSDHRFLGTVEKEATFSNPKTTSPNKGKEKEAEDGIIAYDDCGVKLTIAFQAKDVEGSTSPQIGDKVEFSISDKQRPGQQVATCVRLLGRNSNSKRLLGYVATLKDNFGFIETANHDKEIFFHYSEFSGDVDSLELGDMVEYSLSKGKGNKVSAEKVNKTHSVNGITEEADPTIYSGKVIRPLRSVDPTQTEYQGMIEIVEEGDMKGEVYPFGIVGMANKGDCLQKGESVKFQLCVLGQNAQTMAYNITPLRRATVECVKDQFGFINYEVGDSKKLFFHVKEVQDGIELQAGDEVEFSVILNQRTGKCSACNVWRVCEGPKAVAAPRPDRLVNRLKNITLDDASAPRLMVLRQPRGPDNSMGFGAERKIRQAGVID
B7: Gc-globulin (protein, UniProt P02774 17-474, looked up)
Vitamin D-binding protein: LERGRDYEKNKVCKEFSHLGKEDFTSLSLVLYSRKFPSGTFEQVSQLVKEVVSLTEACCAEGADPDCYDTRTSALSAKSCESNSPFPVHPGTAECCTKEGLERKLCMAALKHQPQEFPTYVEPTNDEICEAFRKDPKEYANQFMWEYSTNYGQAPLSLLVSYTKSYLSMVGSCCTSASPTVCFLKERLQLKHLSLLTTLSNRVCSQYAAYGEKKSRLSNLIKLAQKVPTADLEDVLPLAEDITNILSKCCESASEDCMAKELPEHTVKLCDNLSTKNSKFEDCCQEKTAMDVFVCTYFMPAAQLPELPDVELPTNKDVCDPGNTKVMDKYTFELSRRTHLPEVFLSKVLEPTLKSLGECCDVEDSTTCFNAKGPLLKKELSSFIDKGQELCADYSENTFTEYKKKLAERLKAKLPDATPTELAKLVNKHSDFASNCCSINSPPLYCDSEIDAELKNIL
B8: sp¦Q9NPF4¦OSGEP_HUMAN (protein, UniProt Q9NPF4 1-335, looked up)
tRNA N6-adenosine …: MPAVLGFEGSANKIGVGVVRDGKVLANPRRTYVTPPGTGFLPGDTARHHRAVILDLLQEALTESGLTSQDIDCIAYTKGPGMGAPLVSVAVVARTVAQLWNKPLVGVNHCIGHIEMGRLITGATSPTVLYVSGGNTQVIAYSEHRYRIFGETIDIAVGNCLDRFARVLKISNDPSPGYNIEQMAKRGKKLVELPYTVKGMDVSFSGILSFIEDVAHRMLATGECTPEDLCFSLQETVFAMLVEITERAMAHCGSQEALIVGGVGCNVRLQEMMATMCQERGARLFATDERFCIDNGAMIAQAGWEMFRAGHRTPLSDSGVTQRYRTDEVEVTWRD
B9: sp¦P52789¦HXK2_HUMAN (protein, UniProt P52789 1-917, looked up)
Hexokinase-2: MIASHLLAYFFTELNHDQVQKVDQYLYHMRLSDETLLEISKRFRKEMEKGLGATTHPTAAVKMLPTFVRSTPDGTEHGEFLALDLGGTNFRVLWVKVTDNGLQKVEMENQIYAIPEDIMRGSGTQLFDHIAECLANFMDKLQIKDKKLPLGFTFSFPCHQTKLDESFLVSWTKGFKSSGVEGRDVVALIRKAIQRRGDFDIDIVAVVNDTVGTMMTCGYDDHNCEIGLIVGTGSNACYMEEMRHIDMVEGDEGRMCINMEWGAFGDDGSLNDIRTEFDQEIDMGSLNPGKQLFEKMISGMYMGELVRLILVKMAKEELLFGGKLSPELLNTGRFETKDISDIEGEKDGIRKAREVLMRLGLDPTQEDCVATHRICQIVSTRSASLCAATLAAVLQRIKENKGEERLRSTIGVDGSVYKKHPHFAKRLHKTVRRLVPGCDVRFLRSEDGSGKGAAMVTAVAYRLADQHRARQKTLEHLQLSHDQLLEVKRRMKVEMERGLSKETHASAPVKMLPTYVCATPDGTEKGDFLALDLGGTNFRVLLVRVRNGKWGGVEMHNKIYAIPQEVMHGTGDELFDHIVQCIADFLEYMGMKGVSLPLGFTFSFPCQQNSLDESILLKWTKGFKASGCEGEDVVTLLKEAIHRREEFDLDVVAVVNDTVGTMMTCGFEDPHCEVGLIVGTGSNACYMEEMRNVELVEGEEGRMCVNMEWGAFGDNGCLDDFRTEFDVAVDELSLNPGKQRFEKMISGMYLGEIVRNILIDFTKRGLLFRGRISERLKTRGIFETKFLSQIESDCLALLQVRAILQHLGLESTCDDSIIVKEVCTVVARRAAQLCGAGMAAVVDRIRENRGLDALKVTVGVDGTLYKLHPHFAKVMHETVKDLAPKCDVSFLQSEDGSGKGAALITAVACRIREAGQR
B10: sp¦P23921¦RIR1_HUMAN (protein, UniProt P23921 1-792, looked up)
Ribonucleoside-diphosphate …: MHVIKRDGRQERVMFDKITSRIQKLCYGLNMDFVDPAQITMKVIQGLYSGVTTVELDTLAAETAATLTTKHPDYAILAARIAVSNLHKETKKVFSDVMEDLYNYINPHNGKHSPMVAKSTLDIVLANKDRLNSAIIYDRDFSYNYFGFKTLERSYLLKINGKVAERPQHMLMRVSVGIHKEDIDAAIETYNLLSERWFTHASPTLFNAGTNRPQLSSCFLLSMKDDSIEGIYDTLKQCALISKSAGGIGVAVSCIRATGSYIAGTNGNSNGLVPMLRVYNNTARYVDQGGNKRPGAFAIYLEPWHLDIFEFLDLKKNTGKEEQRARDLFFALWIPDLFMKRVETNQDWSLMCPNECPGLDEVWGEEFEKLYASYEKQGRVRKVVKAQQLWYAIIESQTETGTPYMLYKDSCNRKSNQQNLGTIKCSNLCTEIVEYTSKDEVAVCNLASLALNMYVTSEHTYDFKKLAEVTKVVVRNLNKIIDINYYPVPEACLSNKRHRPIGIGVQGLADAFILMRYPFESAEAQLLNKQIFETIYYGALEASCDLAKEQGPYETYEGSPVSKGILQYDMWNVTPTDLWDWKVLKEKIAKYGIRNSLLIAPMPTASTAQILGNNESIEPYTSNIYTRRVLSGEFQIVNPHLLKDLTERGLWHEEMKNQIIACNGSIQSIPEIPDDLKQLYKTVWEISQKTVLKMAAERGAFIDQSQSLNIHIAEPNYGKLTSMHFYGWKQGLKTGMYYLRTRPAANPIQFTLNKEKLKDKEKVSKEEEEKERNTAAMVCSLENRDECLMCGS
B11: sp¦Q9GZU8¦PIP30_HUMAN (protein, UniProt Q9GZU8 1-254, looked up)
PSME3-interacting protein: MDGGDDGNLIIKKRFVSEAELDERRKRRQEEWEKVRKPEDPEECPEEVYDPRSLYERLQEQKDRKQQEYEEQFKFKNMVRGLDEDETNFLDEVSRQQELIEKQRREEELKELKEYRNNLKKVGISQENKKEVEKKLTVKPIETKNKFSQAKLLAGAVKHKSSESGNSVKRLKPDPEPDDKNQEPSSCKSLGNTSLSGPSIHCPSAAVCIGILPGLGAYSGSSDSESSSDSEGTINATGKIVSSIFRTNTFLEAP
B12: sp¦P21953¦ODBB_HUMAN (protein, UniProt P21953 51-392, looked up)
2-oxoisovalerate …: VAHFTFQPDPEPREYGQTQKMNLFQSVTSALDNSLAKDPTAVIFGEDVAFGGVFRCTVGLRDKYGKDRVFNTPLCEQGIVGFGIGIAVTGATAIAEIQFADYIFPAFDQIVNEAAKYRYRSGDLFNCGSLTIRSPWGCVGHGALYHSQSPEAFFAHCPGIKVVIPRSPFQAKGLLLSCIEDKNPCIFFEPKILYRAAAEEVPIEPYNIPLSQAEVIQEGSDVTLVAWGTQVHVIREVASMAKEKLGVSCEVIDLRTIIPWDVDTICKSVIKTGRLLISHEAPLTGGFASEISSTVQEECFLNLEAPISRVCGYDTPFPHIFEPFYIPDKWKCYDALRKMINY

test system: human HL60 cells; assay: SWATH-MS proteomics, differential protein representation, akirin2 KO vs WT HL60 cells; assay type: cell-based; settings: SWATH-MS, akirin2 KO vs WT HL60 cells; over-represented in KO
Outline: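 WT and akirin2 KO HL60 lysates (150 µg, n=3 biological replicates) were FASP trypsin-digested and desalted. A spectral library was built by IDA from 3 µg digests, then 5 µg per sample went to variable-window SWATH DIA over a 120-min 5–30% acetonitrile gradient. Identifications were accepted at 1% global FDR, with total-area-sum normalization.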

First: B1
Second: B2
The “Fold Change” value of the first is lower: 1.517 for the first, 1.543 for the second.

Going from B3 to B4, the “Fold Change” value falls from 1.561 to 1.53.

First: B5
Second: B6
The “Fold Change” value of the first is lower: 1.503 for the first, 1.544 for the second.

First: B7
Second: B8
The “Fold Change” value of the first is higher: 5.464 for the first, 1.5342 for the second.

Compared with B9, B10 is higher in “Fold Change” value: 1.502 for the first, 1.511 for the second.

First: B11
Second: B12
The “Fold Change” value of the first is lower: 1.523 for the first, 1.558 for the second.

B1 and B2 are within 0.2 log units of each other in “Log (Fold Change)” value: 0.1809 for the first, 0.1885 for the second.

B3 and B4 are within 0.2 log units of each other in “Log (Fold Change)” value: 0.1935 for the first, 0.1848 for the second.

B5 and B6 are within 0.2 log units of each other in “Log (Fold Change)” value: 0.1771 for the first, 0.1886 for the second.

First: B7
Second: B8
The “Log (Fold Change)” value of the first is higher: 0.7375 for the first, 0.1859 for the second.

B9 and B10 are within 0.2 log units of each other in “Log (Fold Change)” value: 0.1767 for the first, 0.1792 for the second.

B11 and B12 are within 0.2 log units of each other in “Log (Fold Change)” value: 0.1827 for the first, 0.1926 for the second.
